Source: the DeepSol protein solubility set

Experiment: soluble on expression in E. coli; label from the status in PepcDB or PDB records

| Sequence | soluble on expression in E. coli |
| --- | --- |
| METFHWKVRPDMNVVSEPKVVTVKLGDGYEQRRAAGLNNQLSTYSVTIRVRKGEHPSLKAFLERHGGVRAFQWTPPYDWKLIRVVCRKWSASVGALWVTVTADFEQVVN | not soluble |
| MDDQIKQIAERLRGLRDVLELTAEDIARDCEISAEEYRLAETGDYDISVSMLQKIARKYGIALDALMFGEEPKMSSYFLTRAGKGTSIERTKAYKYQSLAAGFMNRNADPFIVTVEPKPDIEPIHYNSHSGQEFNLVLEGRMMISIDGKDLILNEGDSLYFNSKLPHGMKALDGKTVRFLAVIM | not soluble |
| GNLSFLATSDGASLAYRLDGAAEKPLLALSNSIGTTLHMWDAQLPALTRHFRVLRYDARGHGASSVPPGPYTLARLGEDVLELLDALEVRRAHFLGLSLGGIVGQWLALHAPQRIERLVLANTSAWLGPAAQWDERIAAVLQAEDMSETAAGFLGNWFPPALLERAEPVVERFRAMLMATNRHGLAGSFAAVRDTDLRAQLARIERPTLVIAGAYDTVTAASHGELIAASIAGARLVTLPAVHLSNVEFPQAFEGAVLSFLGA | not soluble |
| MSLAAVPAPDPGPDAGAIWHYGDPLGEQRAGQADAVLVDRSHRAVLTLDGGDRQTWLHSISTQHVSDLPEGASTQNLSLDGQGRVEDHWIQTELGGTTYLDTEPWRGEPLLAYLRKMVFWSMVTPRAADMAVLSLLGPRLAEERVLDALGLDVLPAEWLAVPLAGGGIVRRMPDGLAGQIELDVVVKRGDRADWQRRLTQAGVRPAGIWAYEAHRVAHRVPARRPRLGVDTDERTIPHEVGWIGGPGAGAVHLNKGCYRGQETVARVHNLGRPPRMLVLLHLDESVQRPSTGDAVLAGGRTVGRLGTVVEHVELGPVALALLKRGLPGDTALVTGPEAEVAAVIDVDSLPPADDVGAGRRAVERLRGGIREGHHHHHH | soluble |
| MAVTVDDIKLSLRIDVTEDDPMIKSYLDAAKDYVQTAVSKNEDLTIYKQYDFAVSLLTQFWYQNRVTDMTKTPYQVVSMIQQLRGLVAG | not soluble |
| MNQAFKALADPTRRKILDLLKEGDLTAGEIAEHFNMTKPSISHHLNALKNAELIQDEKKGQFVMYSLNTTVFQDLLTWVFTFTNKGEEGK | not soluble |
| MRILADENIPVVDAFFADQGSIRRLPGRAIDRAALAEVDVLLVRSVTEVSRAALAGSPVRFVGTCTIGTDHLDLDYFAEAGIAWSSAPGCNARGVVDYVLGCLLAMAEVRGADLAERTYGVVGAGQVGGRLVEVLRGLGWKVLVCDPPRQAREPDGEFVSLERLLAEADVISLHTPLNRDGEHPTRHLLDEPRLAALRPGTWLVNASRGAVVDNQALRRLLEGGADLEVALDVWEGEPQADPELAARCLIATPHIAGYSLEGKLRGTAQIYQAYCAWRGIAERVSLQDVLPETWLAGLQLNPGCDPAWALATLCRAVYDPRSDDAAFRRSLTGDSATRRAAFDALRKHYPPRREITGLRVATGGQAELQRVVRALGAQLV | soluble |
| MGSDKIHHHHHHMLYQLHEMQRAFLRPLAAFTDASSQLFTHPYSPLAYMPMSRQLAAGCELVHRIGKEYQKPAWNLPATEIQGKRVAVIEAVVLDKPFCRLVHFQRDVRRTAGRADPRVLLVAPLSGHHATLLRDTVRALLPAHDVYVTDWVDARMVPQDAGPFHLDDYVRYIQAFLRHLGPDTHVISVCQPTVPVLAAISLMASANDPCQPRSMVMMGGPIDPRESPTQVNRLATTKPYAWFESQLIHAVPAPYPGAGRRVYPGFLQHAGFMAMNPDRHLKSHYDFYLDLLRGDDGDAEAHRRFYDEYNAVLDMPAEFYLDTIRTVFQEWLPGGTWEIDGQLVRPADIRKTSLLTVEGELDDISGQGQTRAAIKLCSGIPAARKSHYTAVGCGHYGIFSGRRWRELICPKIAAFIRQS | not soluble |
| MSNLVLSLDISTSGTGWALFKGSDLIQSGVLKHKSKSYFERGRYMASQLRLIQSRALKKYDCYFSTIAVEKNSVMGPNQQSMLKIGIVTGIILGRLIADNVVFINVSTWRKYWKFSYKDRSKKSMKLQSKIKVEQEFNKSVKDDEADAILIGSYYVNQGYLDELETHDYY | soluble |
| MQFHIDDMTCGGCASTVKKTILTLDANATVRTDPATRLVDVETSLSAEQIAAALQKAGFPPRER | not soluble |
| MGSDKIHHHHHHMGKLCSFLEKHKRSFPIGLSGNTGMGYILTGGISPLSRSKGLAIDQIIEIKGFWGNGKEFHLLRPNTKNELTNEWKALCGAAIFLGIITQVKLKTQPLRPLLSWTANLSFSELSECINQAESWPNSLSLQWIYGDDIFAHAIGEIKNTDDESVMIKLLEKLPFSRNRIINKFNNMKSLPNLSFGNNNNYNNSNHSEVLGLLGPAWQEKNKQVLKILKELINKRPNKSCYIASQQLGGLTHLNDLDTSFIHRDAIWKPWINGAWEAHNQAKRKRTLEWMTECWNNLEFICPGVHLAQIHPHLEWHKKELSSAFEDWLPNLEELKAIHDPRNIMPPLK | not soluble |
| MNESVDTDEATTPLVSAIIPTYGRNERLSSAIQSVLEQTYDNIELFVVDDASPTPVRETLDSFDPTVENSFRILRHDENQGANAARNTGIRASDGRYVAFLDDDDQWDETKITKQVQAFQESDSETGVVYTGVRKDGPEGTTVSTPVASGDVMKDLLTGTNFGQFSSVMVDTTVIETAGLPDERLPAWQDREWFFRLAQHTHFRPVRETLTYRQTGLPGSITKKYEQKRDVAYPMLISKHDWVAAEYGIYYERMFKATMRRSLARSAVRADRYKEARKYFLLSALANPLYWPVYPHLFASLGGKWSYESIASLRQQVTNGPASGT | not soluble |
| MGFKCGIVGLPNVGKSTLFNALTKAGIEAANFPFCTIEPNTGVVPMPDPRLDQLAEIVKPQRTLPTTMEFVDIAGLVKGASKGEGLGNQFLTNIRETEAIGHVVRCFENDNIIHVSGKVNPADDIEVINTELALADLDTCERAIHRVQKKAKGGDKDAKAELAVLEKCLPQLENAGMLRALDLSAEEKAAIRYLSFLTLKPTMYIANVNEDGFENNPYLDQVREIAAKEGSVVVPVCAAVEADIAELDDEERDEFMQELGLEEPGLNRVIRAGYKLLNLQTYFTAGVKEVRAWTIPVGATAPQAAGKIHTDFEKGFIRAQTISFEDFITYKGEQGAKEAGKMRAEGKDYIVKDGDVMNFLFNV | soluble |
| METRQASGQLAALVRPNDVNSGSLLFPSKEPGFYVEAPRLKTDVAIDVSGPIARVKVTQRFQNPSQGWIEGTYVFPLPDNSAVDALKMQIGDRFIEGQIKPRQEAREIYEQAKAEGKKTALLEQQRPNIFTNQVANIGPGEEIVVQIEYQQTVHQSGGEFSLRFPMVVAPRYNPAPIVQTVDFNNGAGFAIPRDPVQNREKIEAPVLDPRENARINPVSLTVNLKAGFPLGEVKSSFHDVDIGQDGDQARTISLKGDAVPADKDFELTWKAAPGKTPSAGLFREAIDGKTYLLAFVTPPTAPDAAAPSKREVVFVIDNSGSMSGQSIEQARQSLALAISRLNPNDRFNVIRFDDTMTDYFKGLVAATPDNREKAVAYVRSLTADGGTEMLPALEDALRNQGPVASGALRQVVFLTDGAIGNEQQLFQEITANRGDARVFTVGIGSAPNTYFMTKAAEVGRGTFTQIGSTDQVASRMSELFAKLQNPTMTDIAASFEGIEAEDITPNPMPDLYSGEPVVLTAELPQDKAAGKLQIVGKTGDQPWRVEMDIANAAVGSGISKLWARRKIDDLEARAYERQDPAALDKDIEAVALAHHLVSRVTSLVAVDVTPSRPANEPLGSAKLPLNLPEGWDFGKVFGEKAVPSGGAERHGAATPAGSAEPQRAAAATQDLAASPEIANLMAAAPTAKAATLIAQKSSTVNLPQTATRADEQIMRGLEHHHHHH | soluble |
| MGSDKIHHHHHHMNITSKLNQIIQECLVNRDSDLFIMPRFDKYQLLYRDAGGYRKSALIDRDEAEQIMMYIKYRADMGISERRRPQSGAMTWLNRQGELVNLRISTVGDFLDRPSMVIRFIYVLKQDEHILDSESMEKIQLATKLRGLMVFSGPMGSGKTTLIYEVARKLSETKMVMSIEDPVEIREHNFLQLQVNEKSGMSYQELLKNGLRNRPDVFIIGEIRDGKTAEIAIQAALSGHLVLTTVHSKSTQGVWNRIVELGVREEHLKEALTAVIYQRMIPAKVGDLKIMAEIKSFHPALKGTKKKWRERLEEWKESGQITKEVFEDFQYG | not soluble |
| MAVIEAEGLWKIFGGDPERARTLAKEGMSKAEVKEETGSVIAVDDANFEVQEQEIFVVMGLSGSGKSTLLRCVNRLIEPTFGKVHVHDDEVTAFDEDRLRKLRRTKMSMVFQNFGLFPHRTVIGNVEYGLEVAGMDKEKRRGKARQSLELVGLDGYEDSQTSQLSGGMQQRVGLARALVNDPEILLMDEAFSALDPLIRADMQNELLELQEQWDPACTILFITHDLDEALKMGDRIAIMKDGRIAQIGTPTEILTEPADEYVRSFVENVDRTKIVPARTVMRALGDDETVAADGPSVSPHTPIAELLPALVDADGPLAVRDSGGTLQGVVSQDAVMEEVVQNADGARRRDARAGRTDEDPEAAVALEHHHHHH | soluble |
| MEGVELKEEWQDEDFPIPLPEDDSIEADILAITGPEDQPGSLEVNGNKVRKKLMAPDISLTLDPSDGSVLSDDLDESGEIDLDGLDTPSENSNEFEWEDDLPKPKTTEVIRKGSITEYTAAEEKEDGRRWRMFRIGEQDHRVDMKAIEPYKKVISHGGYYGDGLNAIVVFAVCFMPESSQPNYRYLMDNLFKYVIGTLELLVAENYMIVYLNGATTRRKMPSLGWLRKCYQQIDRRLRKNLKSLIIVHPSWFIRTLLAVTRPFISSKFSQKIRYVFNLAELAELVPMEYVGIPECIKQVDQELNGKQDEPKNEQLEHHHHHH | soluble |
| MGSDKIHHHHHHMLTASVNEAEPCAEPQRPVIRLHPVTADDAPKLPATRCSTCAIRNVCMPAGLTPIEFARLDAMVCTTRHVKRGDALFRTHDTFQSIYAVRTGSFKTVVMHRDGREQVTGFQIVGETLGLDGVCGGRHNSDAIALEDSTVCIIPFAQLEAVCREVKPMQHHVHQLMSGEIVRESSLMMLLGTMTAEQRVAAFLLNISERFQKRGYSASEFNLRMTREEIGCYLGMKLETVSRMLSKFQRDRLIAPRGKQIRITDPQGLARV | not soluble |
| GPGSMSAAVTWLQNSLGIDVTGEWARHVHLNVGGTLYTTRRYTLRELKDHRIFGPILDGHAHRCEDGSFLIDRDGSLFRYIIAYLRDGRLSVPENFAEWDMLLQEVRYYELPAMEKSVMDHFEFQQSVFRRQLPHGVYVWWPPASSQIEEGATVKAAPCDCPASVPPPPLSLFALPITDSATGRCEARGATEDQTRALEKVHVEAAADAATRSSAGAAPSSCSSASMSVRIVPPLPGLTVEMSSGRRVMFRETQVLQDLDQLVTVLLTAYGFSIQHWDTERGRVLLTLPGLM | not soluble |
| MGSDKIHHHHHHMAKAKTQFICSNCGYTSARYLGRCPNCGQWNTLIEEKIVPEAVVNRKARISFDGRVAKPKKISEISGNELPRTRTGLRELNRVLGGGIVPGSLILIGGDPGIGKSTLMLQVSGQLAENGGSVLYVSGEESDNQIKLRADRLGVGSDSFIVYPETDMEQIKSIVQQIEPDYLVIDSVQTMQEPDLQSPIGSVAQIREVTANLMQIAKTNAITVFIVGHVTKDGSIAGPKILEHMVDTVLYFEGDANYKYRILRTVKNRFGSTNELGIFEMRDHGLREVANPSEIFLEERLAGATGSAITASMEGSRPILVEVQALVAPTVFGNAQRVTTGVDRNRVSQILAVLEKHANLLLQNQDAHVRITGGVKIDEPAADLAIALAVASSYHEKATNASDVFLGEVGLGGEVRSISLIEDRLKEIAKLGFKRAIVSKNNLAGIDLPKGLQVIGVSTLEEALKLGLDLNRASKQKGFADL | not soluble |
| MIEFKNVSKHFGPTQVLHNIDLNIRQGEVVVIIGPSGSGKSTLLRCINKLEEITSGDLIVDGLKVNDPKVDERLIRQEAGMVFQQFYLFPHLTALENVMFGPLRVRGVKKEEAEKQAKALLAKVGLAERAHHYPSELSGGQQQRVAIARALAVKPKMMLFDEPTSALDPELRHEVLKVMQDLAEEGMTMVIVTHEIGFAEKVASRLIFIDKGRIAEDGSPQALIENPPSPRLQEFLQHVS | not soluble |
